# Source: PMC9352680, “A comprehensive thermodynamic model for RNA binding by the Saccharomyces cerevisiae Pumilio protein PUF4”
# Numbering of substitutions follows the chain as printed. In names and notes the source's numbering stands.
# T1: PUF4 RNA-binding domain (Saccharomyces cerevisiae, UniProt P25339 537-888)
# T1 sequence: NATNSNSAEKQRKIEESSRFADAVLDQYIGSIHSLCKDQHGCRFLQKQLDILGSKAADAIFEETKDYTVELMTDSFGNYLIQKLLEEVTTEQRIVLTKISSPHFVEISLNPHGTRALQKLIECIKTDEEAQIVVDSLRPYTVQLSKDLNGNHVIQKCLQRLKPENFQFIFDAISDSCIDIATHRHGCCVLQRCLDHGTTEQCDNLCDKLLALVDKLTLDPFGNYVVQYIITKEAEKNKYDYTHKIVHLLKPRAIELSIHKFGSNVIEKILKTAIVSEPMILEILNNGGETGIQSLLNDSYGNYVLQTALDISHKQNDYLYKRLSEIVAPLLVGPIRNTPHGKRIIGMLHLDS
# B1: Ib_S4_P4E.1_K4.1_C4.1_H4.1_A4.1_[T5A]_F4.1_[A9G]_T4.1 (ssRNA)
# RNA: UUUGACAACUGAUCGUUCUUUCUUGUAAAUUGUUCUUUCUCGAUCAGUUGUCUUU
# B2: Ib_S4_P4E.1_K4.1_C4.1_H4.1_[G2T]_A4.1_[T7A]_F4.1_T4.1 (ssRNA)
# RNA: B1 RNA with G25U, A28U, U30A, G32A
# B3: Ia_S4_P4E.1_K4.1_C4.1_H4.1_A4.1_F4.1_[T8C]_T4.1 (ssRNA)
# RNA: B1 RNA with A28U, U31C, G32A
# B4: Ib_S4_P4E.1_K4.1_C4.1_H4.1_A4.1_[A6T]_F4.1_[A9C]_T4.1 (ssRNA)
# RNA: B1 RNA with A28U, A29U, G32C
# B5: Ib_S4_P4E.1_K4.1_C4.1_H4.1_[T1G]_[G2T]_A4.1_F4.1_T4.1 (ssRNA)
# RNA: B1 RNA with U24G, G25U, A28U, G32A
# B6: Ib_S4_P4E.1_K4.1_C4.1_H4.1_[T1A]_[T3C]_A4.1_F4.1_T4.1 (ssRNA)
# RNA: B1 RNA with U24A, U26C, A28U, G32A
# B7: Ib_S4_P4E.1_K4.1_C4.1_H4.1_[T1A]_A4.1_[A6C]_F4.1_T4.1 (ssRNA)
# RNA: B1 RNA with U24A, A28U, A29C, G32A
# B8: Ib_S4_P4E.1_K4.1_C4.1_H4.1_[T1A]_A4.1_[A6T]_F4.1_T4.1 (ssRNA)
# RNA: B1 RNA with U24A, A28U, A29U, G32A
# B9: Ib_S4_P4E.1_K4.1_C4.1_H4.1_[T1G]_A4.1_[T5C]_F4.1_T4.1 (ssRNA)
# RNA: B1 RNA with U24G, A28C, G32A
# B10: Ib_S4_P4E.1_K4.1_C4.1_H4.1_A4.1_[A6T]_F4.1_[A9G]_T4.1 (ssRNA)
# RNA: B1 RNA with A28U, A29U
# B11: Ib_S4_P4E.1_K4.1_C4.1_H4.1_[T1C]_A4.1_[A6T]_F4.1_T4.1 (ssRNA)
# RNA: B1 RNA with U24C, A28U, A29U, G32A
# B12: Ib_S4_P4E.1_K4.1_C4.1_H4.1_[T1G]_[A4T]_A4.1_F4.1_T4.1 (ssRNA)
# RNA: B1 RNA with U24G, A27U, A28U, G32A
# B13: Ib_S4_P4E.1_K4.1_C4.1_H4.1_[T3C]_A4.1_[T7A]_F4.1_T4.1 (ssRNA)
# RNA: B1 RNA with U26C, A28U, U30A, G32A
# B14: Ic_S4_P4E.1_K4.1_C4.1_H4.1_A4.1_[T5C]_F4.1_[A9T]_T4.1 (ssRNA)
# RNA: B1 RNA with A28C, G32U
# B15: Ib_S4_P4E.1_K4.1_C4.1_H4.1_[T1C]_A4.1_[T5A]_F4.1_T4.1 (ssRNA)
# RNA: B1 RNA with U24C, G32A
# B16: Ib_S4_P4E.1_K4.1_C4.1_H4.1_[T1C]_[G2C]_A4.1_F4.1_T4.1 (ssRNA)
# RNA: B1 RNA with U24C, G25C, A28U, G32A
# B17: Ib_S4_P4E.1_K4.1_C4.1_H4.1_[T1C]_A4.1_[A6G]_F4.1_T4.1 (ssRNA)
# RNA: B1 RNA with U24C, A28U, A29G, G32A
# B18: Ib_S4_P4E.1_K4.1_C4.1_H4.1_[T1A]_[G2T]_A4.1_F4.1_T4.1 (ssRNA)
# RNA: B1 RNA with U24A, G25U, A28U, G32A
# B19: Ib_S4_P4E.1_K4.1_C4.1_H4.1_[T1C]_[G2A]_A4.1_F4.1_T4.1 (ssRNA)
# RNA: B1 RNA with U24C, G25A, A28U, G32A
# B20: Ib_S4_P4E.1_K4.1_C4.1_H4.1_[T3C]_A4.1_[A6T]_F4.1_T4.1 (ssRNA)
# RNA: B1 RNA with U26C, A28U, A29U, G32A
# B21: Ib_S4_P4E.1_K4.1_C4.1_H4.1_[G2T]_A4.1_[A6C]_F4.1_T4.1 (ssRNA)
# RNA: B1 RNA with G25U, A28U, A29C, G32A
# B22: Ib_S4_P4E.1_K4.1_C4.1_H4.1_[T1G]_[A4G]_A4.1_F4.1_T4.1 (ssRNA)
# RNA: B1 RNA with U24G, A27G, A28U, G32A
# B23: Ib_S4_P4E.1_K4.1_C4.1_H4.1_[G2C]_[T3C]_A4.1_F4.1_T4.1 (ssRNA)
# RNA: B1 RNA with G25C, U26C, A28U, G32A
# B24: Ib_S4_P4E.1_K4.1_C4.1_H4.1_[G2T]_A4.1_[T5C]_F4.1_T4.1 (ssRNA)
# RNA: B1 RNA with G25U, A28C, G32A
# B25: Ib_S4_P4E.1_K4.1_C4.1_H4.1_[T3C]_[A4C]_A4.1_F4.1_T4.1 (ssRNA)
# RNA: B1 RNA with U26C, A27C, A28U, G32A
# B26: Ib_S4_P4E.1_K4.1_C4.1_H4.1_A4.1_[T7C]_F4.1_[A9C]_T4.1 (ssRNA)
# RNA: B1 RNA with A28U, U30C, G32C
# B27: Ib_S4_P4E.1_K4.1_C4.1_H4.1_[G2A]_[A4G]_A4.1_F4.1_T4.1 (ssRNA)
# RNA: B1 RNA with G25A, A27G, A28U, G32A
# B28: Ib_S4_P4E.1_K4.1_C4.1_H4.1_[A4C]_A4.1_[T5A]_F4.1_T4.1 (ssRNA)
# RNA: B1 RNA with A27C, G32A
# B29: Ib_S4_P4E.1_K4.1_C4.1_H4.1_[G2A]_A4.1_[T7A]_F4.1_T4.1 (ssRNA)
# RNA: B1 RNA with G25A, A28U, U30A, G32A
# B30: Ib_S4_P4E.1_K4.1_C4.1_H4.1_[G2C]_A4.1_[T7G]_F4.1_T4.1 (ssRNA)
# RNA: B1 RNA with G25C, A28U, U30G, G32A
# B31: Ib_S4_P4E.1_K4.1_C4.1_H4.1_[A4T]_A4.1_[T5A]_F4.1_T4.1 (ssRNA)
# RNA: B1 RNA with A27U, G32A
# B32: Ib_S4_P4E.1_K4.1_C4.1_H4.1_[T1G]_A4.1_[A6T]_F4.1_T4.1 (ssRNA)
# RNA: B1 RNA with U24G, A28U, A29U, G32A
# B33: Ic_S4_P4E.1_K4.1_C4.1_H4.1_A4.1_[A6C]_F4.1_[A9G]_T4.1 (ssRNA)
# RNA: B1 RNA with A28U, A29C
# B34: Ib_S4_P4E.1_K4.1_C4.1_H4.1_[T1A]_A4.1_[T5A]_F4.1_T4.1 (ssRNA)
# RNA: B1 RNA with U24A, G32A
# B35: Ib_S4_P4E.1_K4.1_C4.1_H4.1_[T3C]_A4.1_[T7C]_F4.1_T4.1 (ssRNA)
# RNA: B1 RNA with U26C, A28U, U30C, G32A
# B36: Ib_S4_P4E.1_K4.1_C4.1_H4.1_[T1A]_[G2C]_A4.1_F4.1_T4.1 (ssRNA)
# RNA: B1 RNA with U24A, G25C, A28U, G32A
# B37: Ib_S4_P4E.1_K4.1_C4.1_H4.1_[G2T]_[A4C]_A4.1_F4.1_T4.1 (ssRNA)
# RNA: B1 RNA with G25U, A27C, A28U, G32A
# B38: Ic_S4_P4E.1_K4.1_C4.1_H4.1_A4.1_[T7C]_F4.1_[A9T]_T4.1 (ssRNA)
# RNA: B1 RNA with A28U, U30C, G32U
# B39: Ib_S4_P4E.1_K4.1_C4.1_H4.1_[T3G]_[A4T]_A4.1_F4.1_T4.1 (ssRNA)
# RNA: B1 RNA with U26G, A27U, A28U, G32A
# B40: Ic_S4_P4E.1_K4.1_C4.1_H4.1_A4.1_[T7G]_F4.1_[A9G]_T4.1 (ssRNA)
# RNA: B1 RNA with A28U, U30G
# B41: Ib_S4_P4E.1_K4.1_C4.1_H4.1_[T1C]_[A4T]_A4.1_F4.1_T4.1 (ssRNA)
# RNA: B1 RNA with U24C, A27U, A28U, G32A
# B42: Ib_S4_P4E.1_K4.1_C4.1_H4.1_[A4G]_A4.1_[A6G]_F4.1_T4.1 (ssRNA)
# RNA: B1 RNA with A27G, A28U, A29G, G32A
# B43: Ib_S4_P4E.1_K4.1_C4.1_H4.1_[T1A]_[A4T]_A4.1_F4.1_T4.1 (ssRNA)
# RNA: B1 RNA with U24A, A27U, A28U, G32A
# B44: Ib_S4_P4E.1_K4.1_C4.1_H4.1_[T1G]_[A4C]_A4.1_F4.1_T4.1 (ssRNA)
# RNA: B1 RNA with U24G, A27C, A28U, G32A
# B45: Ib_S4_P4E.1_K4.1_C4.1_H4.1_[T1C]_[G2T]_A4.1_F4.1_T4.1 (ssRNA)
# RNA: B1 RNA with U24C, G25U, A28U, G32A
# B46: Ib_S4_P4E.1_K4.1_C4.1_H4.1_[T1G]_A4.1_[T7A]_F4.1_T4.1 (ssRNA)
# RNA: B1 RNA with U24G, A28U, U30A, G32A
# B47: Ib_S4_P4E.1_K4.1_C4.1_H4.1_[T3C]_A4.1_[T7G]_F4.1_T4.1 (ssRNA)
# RNA: B1 RNA with U26C, A28U, U30G, G32A
# B48: Ib_S4_P4E.1_K4.1_C4.1_H4.1_A4.1_[A6G]_F4.1_[A9C]_T4.1 (ssRNA)
# RNA: B1 RNA with A28U, A29G, G32C
# B49: Ib_S4_P4E.1_K4.1_C4.1_H4.1_A4.1_[A6C]_F4.1_[A9T]_T4.1 (ssRNA)
# RNA: B1 RNA with A28U, A29C, G32U
# B50: Ib_S4_P4E.1_K4.1_C4.1_H4.1_[G2T]_[A4G]_A4.1_F4.1_T4.1 (ssRNA)
# RNA: B1 RNA with G25U, A27G, A28U, G32A
# B51: Ib_S4_P4E.1_K4.1_C4.1_H4.1_[G2C]_A4.1_[A6C]_F4.1_T4.1 (ssRNA)
# RNA: B1 RNA with G25C, A28U, A29C, G32A
# B52: Ib_S4_P4E.1_K4.1_C4.1_H4.1_[G2A]_[A4T]_A4.1_F4.1_T4.1 (ssRNA)
# RNA: B1 RNA with G25A, A27U, A28U, G32A
# B53: Ib_S4_P4E.1_K4.1_C4.1_H4.1_[G2T]_[T3C]_A4.1_F4.1_T4.1 (ssRNA)
# RNA: B1 RNA with G25U, U26C, A28U, G32A
# B54: Ia_S4_P3E.1_K3.1_C3.1_H3.1_[G2C]_A3.1_F3.1_T3.1 (ssRNA)
# RNA: UUUGACAACUGAUCGUUCUUUCUUCUAUAUAUUCUUUCUCGAUCAGUUGUCUUU
# B55: Ia_S4_P3E.1_K3.1_C3.1_H3.1_[A4T]_A3.1_F3.1_T3.1 (ssRNA)
# RNA: B54 RNA with C25G, A27U
# B56: Ic_S4_P3E.1_K3.1_C3.1_H3.1_A3.1_[A6C]_F3.1_T3.1 (ssRNA)
# RNA: B54 RNA with C25G, A29C
# B57: Ic_S4_P3E.1_K3.1_C3.1_H3.1_A3.1_[T5C]_F3.1_T3.1 (ssRNA)
# RNA: B54 RNA with C25G, U28C
# Biological target: T1, PUF4 RNA-binding domain
# Test: Mg; RNA-MaP; 20 mM Na-HEPES pH 7.4, 30 mM KOAc, 0.75 mM MgCl2, 0.1% Tween-20, 5% glycerol, 0.1 mg/mL BSA, 2 mM DTT; 25 C; 0.0125-409.6 nM protein
# Conditions: tags: N-His6-TEV cleaved; C-SNAP kept, Cy3B-labelled; label: tethered on chip by stalled RNA polymerase
row,Binder,Kd [µM]
1,B1,0.0197
2,B2,1.2
3,B3,0.00903
4,B4,0.0178
5,B5,0.0412
6,B6,1.88
7,B7,2.27
8,B8,1.52
9,B9,0.0429
10,B10,0.0082
11,B11,0.133
12,B12,1.59
13,B13,0.215
14,B14,0.00194
15,B15,0.182
16,B16,0.331
17,B17,0.7
18,B18,0.686
19,B19,0.168

row,Binder,Kd [µM]
1,B20,0.203
2,B21,> 2.3
3,B22,0.0401
4,B23,2.09
5,B24,0.356
6,B25,0.814
7,B26,0.0101
8,B27,0.0152
9,B28,0.0484
10,B29,0.0752
11,B30,> 2.3
12,B31,0.0134
13,B32,0.971
14,B33,0.0113
15,B34,0.858
16,B35,0.0481
17,B36,0.481
18,B37,> 2.3
19,B38,0.007

row,Binder,Kd [µM]
1,B39,1.28
2,B40,0.0135
3,B41,0.615
4,B42,0.0109
5,B43,> 2.3
6,B44,> 2.3
7,B45,0.401
8,B46,0.332
9,B47,0.434
10,B48,0.0155
11,B49,0.0108
12,B50,0.00727
13,B51,> 2.3
14,B52,0.669
15,B53,2
16,B54,0.36
17,B55,0.0868
18,B56,0.0101
19,B57,0.00193
